Each block holds one binder with its values, some of them ahead of it.
Target: Bub1p fusion to the Gal4 DNA binding domain (budding yeast) (UniProt P41695)
Assay: two-hybrid

Sequence of UniProt P41695 (P41695 whole entry, the tested form may be a part): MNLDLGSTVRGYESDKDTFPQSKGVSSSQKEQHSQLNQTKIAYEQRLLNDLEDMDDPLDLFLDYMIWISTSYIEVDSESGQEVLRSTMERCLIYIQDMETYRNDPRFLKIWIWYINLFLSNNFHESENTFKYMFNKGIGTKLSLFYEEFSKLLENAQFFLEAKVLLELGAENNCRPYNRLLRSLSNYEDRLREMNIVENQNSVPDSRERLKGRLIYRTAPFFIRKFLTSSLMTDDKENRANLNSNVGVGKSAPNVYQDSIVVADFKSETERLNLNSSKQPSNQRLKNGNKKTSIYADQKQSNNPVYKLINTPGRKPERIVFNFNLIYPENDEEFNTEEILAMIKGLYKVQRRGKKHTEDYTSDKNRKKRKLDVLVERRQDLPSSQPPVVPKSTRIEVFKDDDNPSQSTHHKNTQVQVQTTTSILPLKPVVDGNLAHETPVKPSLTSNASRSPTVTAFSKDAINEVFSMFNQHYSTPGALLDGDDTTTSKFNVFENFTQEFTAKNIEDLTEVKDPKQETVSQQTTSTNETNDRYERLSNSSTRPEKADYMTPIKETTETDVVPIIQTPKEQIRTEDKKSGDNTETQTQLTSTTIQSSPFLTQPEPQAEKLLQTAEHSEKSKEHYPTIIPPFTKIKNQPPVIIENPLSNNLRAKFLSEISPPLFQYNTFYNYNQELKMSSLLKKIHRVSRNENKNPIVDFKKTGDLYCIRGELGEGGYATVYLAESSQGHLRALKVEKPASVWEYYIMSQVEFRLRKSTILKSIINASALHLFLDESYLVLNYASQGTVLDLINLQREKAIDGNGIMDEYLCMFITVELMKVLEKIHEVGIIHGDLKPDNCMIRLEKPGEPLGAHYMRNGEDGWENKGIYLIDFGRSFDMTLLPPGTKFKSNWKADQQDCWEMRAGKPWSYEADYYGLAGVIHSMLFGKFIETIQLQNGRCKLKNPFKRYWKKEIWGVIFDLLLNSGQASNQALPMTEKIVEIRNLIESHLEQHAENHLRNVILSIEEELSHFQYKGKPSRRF

β-galactosidase activity (two-hybrid): 100 Miller units
B1: Cdc20p fusion to the transcriptional activation domain (natural protein)
chain: MPESSRDKGNAAISGNRSVLSIASPTKLNILSSDWSRNQGKVSKNSLKRSSSLNIRNSKRPSLQASANSIYSRPKITIGAPPLIRRDSSFFKDEFDAKKDKATFSAYSSRSYPTIGSESVVSQTSLSQPTTSREVDEQFTVAADRYIPILQGASQNKVDPETLHEALPPPNASPISHLRAQTKIVFKQNVAEACGLDMNKRILQYMPEPPKCSSLRQKSYIMKKRTHYSYQQEQKIPDLIKLRKINTNPERILDAPGFQDDFYLNLLSWSKKNVLAIALDTALYLWNATTGDVSLLTDFENTTICSVTWSDDDCHISIGKEDGNTEIWDVETMSLIRTMRSGLGVRIGSLSWLDTLIATGSRSGEIQINDVRIKQHIVSTWAEHTGEVCGLSYKSDGLQLASGGNDNTVMIWDTRTSLPQFSKKTHTAAVKALSWCPYSPNILASGGGQTDKHIHFWNSITGARVGSINTGSQVSSLHWGQSHTSTNGGMMNKEIVATGGNPENAISVYNYETKFKVAEVVHAHEARICCSQLSPDGTTLATVGGDENLKFYKIFDPRCTGRSREDGLMDGMLGLIGKEGCRTNDKENRSKNSSEIHTRRPSSTSQYLIR

β-galactosidase activity (two-hybrid): 55 Miller units
B2: Bub3p fusion to the transcriptional activation domain (natural protein)
chain: MQIVQIEQAPKDYISDIKIIPSKSLLLITSWDGSLTVYKFDIQAKNVDLLQSLRYKHPLLCCNFIDNTDLQIYVGTVQGEILKVDLIGSPSFQALTNNEANLGICRICKYGDDKLIAASWDGLIEVIDPRNYGDGVIAVKNLNSNNTKVKNKIFTMDTNSSRLIVGMNNSQVQWFRLPLCEDDNGTIEESGLKYQIRDVALLPKEQEGYACSSIDGRVAVEFFDDQGDDYNSSKRFAFRCHRLNLKDTNLAYPVNSIEFSPRHKFLYTAGSDGIISCWNLQTRKKIKNFAKFNEDSVVKIACSDNILCLATSDDTFKTNAAIDQTIELNASSIYIIFDYEN

Source: PMC2174553
